How the values were obtained:
[1] = target: human blood coagulation factor X (FX) (human); experiment: SPR; biotinylated hypersulfated heparin (HS) on a streptavidin CM4 chip, BIAcore3000; hexon or virions injected alone or mixed with FX or FXGL; read-out is the FX-bridged binding to HS; HBS (10 mM HEPES, 150 mM NaCl, pH 7.4) with 3 mM CaCl2, 5 µl/min
[2] = target: human blood coagulation factor X (FX) (human)
[3] = target: human blood coagulation factor X (FX) (human); remark: listed apart in the source
[4] = target: immobilized HS (hypersulfated heparin), bridged by FX (m1); experiment: SPR; details: virion + FX at 8 µg/ml (FXmax); HS immobilized on chip; read at end of injection (~285 s); parent: est. 2900; read off a plot
[5] = target: TTAT mutant fiber of HAdV5 (KKTK motif of the shaft mutated) (human adenovirus serotype 5) (UniProt P11818); experiment: not stated; data not shown: folding of TTAT mutant fibers as trimers

Question: How did the copies of FX per virion at maximum FX-mediated binding to HS (copies of FX per virion) [1] turn out when “HAdV5F35 virion (serotype 35 fiber-pseudotyped HAdV5 vector) (from UniProt P04133 1-952; P12538 1-571) (complex)” was run?
Answer: 480

Question: What about the cell-bound virions on CHO-K1 cells (qPCR of viral genomes), MOI 5,000, 1 h at 4°C, increase with FX 8 µg/ml over no FX [2] of the same substance?
Answer: 10 fold

Question: With “HAdV5F^TTAT virion (HAdV5 vector mutated in the KKTK motif of the fiber shaft) (from UniProt P04133 1-952; P12538 1-571; P11818 1-581) (complex)” as the substance, how does the enhancement of transduction efficiency of CHO-K1 cells, MOI 2,500, increasing doses of FX up to FXmax (8 µg/ml) [3] read?
Answer: 65 fold

Question: With “HAdV5wt virion (replication-deficient HAdV5 vector with nonmodified capsid) (from UniProt P04133 1-952; P12538 1-571; P11818 1-581) (complex)” as the substance, how does the cell-bound virions on CHO-K1 cells (qPCR of viral genomes), MOI 5,000, 1 h at 4°C, increase with FX 8 µg/ml over no FX [2] read?
Answer: 5 to 6 fold

Question: With “HAdV5wt virion (replication-deficient HAdV5 vector with nonmodified capsid) (from UniProt P04133;P12538;P11818) fiber:K91T; fiber:K92T; fiber:T93A; fiber:K94T” as the substance, how does the response [4] read?
Answer: 2400 RU

Question: Which response [4] does the source give for “HAdV5wt virion (replication-deficient HAdV5 vector with nonmodified capsid) (from UniProt P04133;P12538;P11818) penton base:R340E” here?
Answer: 2500 RU

Question: How did the stoichiometry N [5] turn out when “TTAT mutant fiber of HAdV5 (KKTK motif of the shaft mutated) (from UniProt P11818 1-581) (natural protein)” was run?
Answer: 3
